T1: MPP2, Q14168
T1 sequence (Q14168 180-250, limits assumed, looked up): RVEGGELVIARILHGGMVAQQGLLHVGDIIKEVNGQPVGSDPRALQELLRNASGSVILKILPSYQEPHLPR

T2: TX1BP3, O14907
T2 sequence (O14907 10-122, limits assumed, looked up): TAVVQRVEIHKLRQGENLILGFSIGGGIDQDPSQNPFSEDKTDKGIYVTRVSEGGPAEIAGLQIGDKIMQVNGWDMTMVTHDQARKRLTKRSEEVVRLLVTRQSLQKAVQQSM

T3: DLG3_2, Q92796
T3 sequence (Q92796 221-321, limits assumed, looked up): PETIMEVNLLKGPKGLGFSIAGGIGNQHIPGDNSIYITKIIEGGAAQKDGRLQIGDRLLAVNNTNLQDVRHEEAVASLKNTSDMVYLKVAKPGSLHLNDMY

T4: GRIP1_2, Q9Y3R0
T4 sequence (Q9Y3R0 145-248, limits assumed, looked up): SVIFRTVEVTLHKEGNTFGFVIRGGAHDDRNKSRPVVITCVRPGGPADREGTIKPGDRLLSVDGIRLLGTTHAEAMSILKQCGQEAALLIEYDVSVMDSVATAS

T5: LNX2_2, Q8N448
T5 sequence (Q8N448 334-432, limits assumed, looked up): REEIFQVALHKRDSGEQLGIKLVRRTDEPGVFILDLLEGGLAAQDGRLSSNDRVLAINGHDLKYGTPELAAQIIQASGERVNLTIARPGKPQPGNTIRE

T6: MPDZ_5, O75970
T6 sequence (O75970 695-796, limits assumed, looked up): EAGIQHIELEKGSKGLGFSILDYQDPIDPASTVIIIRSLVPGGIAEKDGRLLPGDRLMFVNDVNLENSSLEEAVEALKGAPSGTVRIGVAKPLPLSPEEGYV

T7: DLG3_1, Q92796
T7 sequence (Q92796 125-227, limits assumed, looked up): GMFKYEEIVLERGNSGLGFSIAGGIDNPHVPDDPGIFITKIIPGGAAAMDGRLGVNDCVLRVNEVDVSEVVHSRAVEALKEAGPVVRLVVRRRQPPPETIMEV

T8: RADIL, Q96JH8
T8 sequence (Q96JH8 971-1071, limits assumed, looked up): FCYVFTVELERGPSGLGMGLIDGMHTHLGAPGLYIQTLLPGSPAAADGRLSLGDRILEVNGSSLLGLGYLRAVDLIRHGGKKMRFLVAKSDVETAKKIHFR

T9: APBA3_1, O96018
T9 sequence (O96018 389-490, limits assumed, looked up): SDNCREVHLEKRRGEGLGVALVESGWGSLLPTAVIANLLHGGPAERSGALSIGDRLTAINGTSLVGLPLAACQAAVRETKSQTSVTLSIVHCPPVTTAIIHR

T10: APBA1_1, Q02410
T10 sequence (Q02410 651-752, limits assumed, looked up): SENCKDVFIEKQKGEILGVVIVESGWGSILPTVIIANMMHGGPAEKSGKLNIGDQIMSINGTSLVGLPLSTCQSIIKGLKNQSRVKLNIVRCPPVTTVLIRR

T11: APBA1_2, Q02410
T11 sequence (Q02410 742-832, limits assumed, looked up): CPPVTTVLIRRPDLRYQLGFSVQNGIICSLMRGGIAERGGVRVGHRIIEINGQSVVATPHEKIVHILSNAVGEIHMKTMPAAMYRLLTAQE

T12: SNTB1, Q13884
T12 sequence (Q13884 107-205, limits assumed, looked up): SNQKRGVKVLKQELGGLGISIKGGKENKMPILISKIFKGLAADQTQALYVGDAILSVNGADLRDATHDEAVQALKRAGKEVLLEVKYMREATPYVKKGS


Columns and labels:
Test in all cases: holdup assay
Design in all cases: key: below the threshold = too weak to quantify, mostly under pKd 3.1 to 4
Conditions in all cases: plain residues with an end cap or a label only (N-terminal biotin on a linker: ado-ado)
MPP2, Q14168 = target: T1, MPP2, Q14168
DLG1_2, Q12959 = target: DLG1_2, Q12959
LAP2, Q96RT1 = target: LAP2, Q96RT1
DLG4_3, P78352 = target: DLG4_3, P78352
TX1BP3, O14907 = target: T2, TX1BP3, O14907
ARHGEF12, Q9NZN5-2 = target: ARHGEF12, Q9NZN5-2
DLG3_2, Q92796 = target: T3, DLG3_2, Q92796
TJP2_1, Q9UDY2 = target: TJP2_1, Q9UDY2
CASK, O14936 = target: CASK, O14936
GRIP1_2, Q9Y3R0 = target: T4, GRIP1_2, Q9Y3R0
LNX2_2, Q8N448 = target: T5, LNX2_2, Q8N448
MPDZ_5, O75970 = target: T6, MPDZ_5, O75970
LNX1_2, Q8TBB1 = target: LNX1_2, Q8TBB1
TJP1_2, Q07157 = target: TJP1_2, Q07157
PICK1, Q9NRD5 = target: PICK1, Q9NRD5
DLG3_1, Q92796 = target: T7, DLG3_1, Q92796
RADIL, Q96JH8 = target: T8, RADIL, Q96JH8
MAGI3_2, Q5TCQ9 = target: MAGI3_2, Q5TCQ9
APBA3_1, O96018 = target: T9, APBA3_1, O96018
APBA1_1, Q02410 = target: T10, APBA1_1, Q02410
PDZRN4_1, Q6ZMN7 = target: PDZRN4_1, Q6ZMN7
DLG2_2, Q15700 = target: DLG2_2, Q15700
Inadl_10, Q8NI35 = target: Inadl_10, Q8NI35
APBA1_2, Q02410 = target: T11, APBA1_2, Q02410
SNTB1, Q13884 = target: T12, SNTB1, Q13884
MAGI2_4, Q86UL8 = target: MAGI2_4, Q86UL8
Chain of MAGI2_4, Q86UL8 (Q86UL8 772-865): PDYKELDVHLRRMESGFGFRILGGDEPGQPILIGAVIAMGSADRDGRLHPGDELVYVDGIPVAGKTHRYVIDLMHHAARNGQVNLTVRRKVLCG

Chain of CASK, O14936 (O14936 487-570): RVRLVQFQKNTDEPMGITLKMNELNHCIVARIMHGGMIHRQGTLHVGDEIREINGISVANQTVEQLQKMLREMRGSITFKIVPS
Chain of Inadl_10, Q8NI35 (Q8NI35 1673-1763): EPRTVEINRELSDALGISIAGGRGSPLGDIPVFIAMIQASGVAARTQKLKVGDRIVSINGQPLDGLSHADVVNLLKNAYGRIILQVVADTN
Chain of PICK1, Q9NRD5 (Q9NRD5 17-115): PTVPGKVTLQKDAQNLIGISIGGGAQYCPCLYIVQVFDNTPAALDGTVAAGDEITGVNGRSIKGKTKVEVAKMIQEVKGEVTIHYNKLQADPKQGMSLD
Chain of DLG1_2, Q12959 (Q12959 314-412): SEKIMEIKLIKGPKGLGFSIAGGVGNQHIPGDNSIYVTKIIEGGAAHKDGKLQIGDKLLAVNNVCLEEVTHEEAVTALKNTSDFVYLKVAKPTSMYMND
Chain of PDZRN4_1, Q6ZMN7 (Q6ZMN7 213-318): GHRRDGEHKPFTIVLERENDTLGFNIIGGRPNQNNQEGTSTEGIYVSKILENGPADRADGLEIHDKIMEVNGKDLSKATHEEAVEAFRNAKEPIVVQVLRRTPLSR
Chain of DLG2_2, Q15700 (Q15700 189-283): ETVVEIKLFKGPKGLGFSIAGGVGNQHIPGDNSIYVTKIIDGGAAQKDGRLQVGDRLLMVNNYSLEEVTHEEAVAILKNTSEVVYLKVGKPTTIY
Chain of MAGI3_2, Q5TCQ9 (Q5TCQ9 398-503): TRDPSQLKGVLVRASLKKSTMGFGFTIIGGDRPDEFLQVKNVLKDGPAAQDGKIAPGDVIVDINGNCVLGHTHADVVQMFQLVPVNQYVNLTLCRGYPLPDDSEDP
Chain of LNX1_2, Q8TBB1 (Q8TBB1 371-470): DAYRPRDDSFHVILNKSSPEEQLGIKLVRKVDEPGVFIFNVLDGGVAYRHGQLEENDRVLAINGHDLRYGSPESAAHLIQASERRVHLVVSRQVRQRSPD
Chain of ARHGEF12, Q9NZN5-2 (Q9NZN5 other isoform, or with tags, fused parts or gaps): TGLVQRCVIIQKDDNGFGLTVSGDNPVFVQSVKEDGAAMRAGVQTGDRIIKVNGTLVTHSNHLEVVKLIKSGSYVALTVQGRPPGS
Chain of TJP2_1, Q9UDY2 (Q9UDY2 24-128): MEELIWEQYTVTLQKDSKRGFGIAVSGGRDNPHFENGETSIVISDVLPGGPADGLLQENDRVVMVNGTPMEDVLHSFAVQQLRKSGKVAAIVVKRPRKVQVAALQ
Chain of DLG4_3, P78352 (P78352 306-403): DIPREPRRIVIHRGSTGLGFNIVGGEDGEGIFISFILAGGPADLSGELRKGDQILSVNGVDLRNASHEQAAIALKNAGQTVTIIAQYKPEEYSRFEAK
Chain of LAP2, Q96RT1 (Q96RT1 other isoform, or with tags, fused parts or gaps): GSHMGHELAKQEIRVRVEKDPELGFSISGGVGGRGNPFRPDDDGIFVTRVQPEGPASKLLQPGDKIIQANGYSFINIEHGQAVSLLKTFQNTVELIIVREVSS
Chain of TJP1_2, Q07157 (Q07157 181-274): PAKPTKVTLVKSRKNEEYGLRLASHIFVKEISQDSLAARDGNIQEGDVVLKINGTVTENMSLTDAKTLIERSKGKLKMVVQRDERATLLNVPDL

pKd (MPP2, Q14168) | pKd (DLG1_2, Q12959) | pKd (LAP2, Q96RT1) | pKd (DLG4_3, P78352) | pKd (TX1BP3, O14907) | pKd (ARHGEF12, Q9NZN5-2) | pKd (DLG3_2, Q92796) | pKd (TJP2_1, Q9UDY2) | pKd (CASK, O14936) | pKd (GRIP1_2, Q9Y3R0) | pKd (LNX2_2, Q8N448) | pKd (MPDZ_5, O75970) | pKd (LNX1_2, Q8TBB1) | pKd (TJP1_2, Q07157) | pKd (PICK1, Q9NRD5) | pKd (DLG3_1, Q92796) | pKd (RADIL, Q96JH8) | pKd (MAGI3_2, Q5TCQ9) | pKd (APBA3_1, O96018) | pKd (APBA1_1, Q02410) | Binder | other results
below the threshold | 4.98 | 3.85 | 4.43 | 4.11 | 4.63 | 4.61 | 3.6 | below the threshold | below the threshold | 4.16 | below the threshold | below the threshold | below the threshold | below the threshold | 4.04 | below the threshold | 5.01 | below the threshold | below the threshold | FHSIKQSTAV [CRHR1, P34998] | pKd (PDZRN4_1, Q6ZMN7): 4.1; pKd (DLG2_2, Q15700): 4.66; pKd (Inadl_10, Q8NI35): below the threshold; pKd (APBA1_2, Q02410): 4.15; pKd (SNTB1, Q13884): 3.75; pKd (MAGI2_4, Q86UL8): 4.42
below the threshold | 5.91 | 3.54 | 4.5 | 3.91 | 4.87 | 5.28 | 3.87 | below the threshold | below the threshold | 5.24 | below the threshold | 4.1 | 3.73 | below the threshold | 4.59 | 4.14 | 5.31 | below the threshold | below the threshold | ATKDKKITTV [EXOC4, Q96A65] | pKd (PDZRN4_1, Q6ZMN7): 3.82; pKd (DLG2_2, Q15700): 5.75; pKd (Inadl_10, Q8NI35): below the threshold; pKd (APBA1_2, Q02410): 3.82; pKd (SNTB1, Q13884): 4.34; pKd (MAGI2_4, Q86UL8): 4.51

Reference: article PMC9482650, “Quantitative fragmentomics allow affinity mapping of interactomes” (Nature Communications, 2022)
